According to patent US20210147541A1 (Kyowa Kirin, published 2021):

T1: human CADM3 (human, UniProt Q8N126 25-398)
T1 construct: Full-length gene expressed transiently on Expi293F cells; also called cell adhesion molecule 3; human CADM3/Expi293F cells
T1 sequence: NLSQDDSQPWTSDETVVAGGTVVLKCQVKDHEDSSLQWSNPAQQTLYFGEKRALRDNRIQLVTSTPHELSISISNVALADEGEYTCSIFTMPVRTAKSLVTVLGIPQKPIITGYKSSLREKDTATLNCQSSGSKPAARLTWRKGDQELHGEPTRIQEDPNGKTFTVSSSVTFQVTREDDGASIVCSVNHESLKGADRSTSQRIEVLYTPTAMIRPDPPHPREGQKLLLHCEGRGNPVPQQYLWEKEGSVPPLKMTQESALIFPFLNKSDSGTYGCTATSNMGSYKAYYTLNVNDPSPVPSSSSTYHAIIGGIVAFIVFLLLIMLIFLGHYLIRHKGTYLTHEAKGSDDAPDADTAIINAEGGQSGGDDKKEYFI

T2: mouse CADM3 (mouse, UniProt Q99N28 23-396)
T2 construct: Full-length gene expressed transiently on Expi293F cells; also called mouse CADM3/Expi293F cells; Mouse CADM3-expressing cells
T2 sequence: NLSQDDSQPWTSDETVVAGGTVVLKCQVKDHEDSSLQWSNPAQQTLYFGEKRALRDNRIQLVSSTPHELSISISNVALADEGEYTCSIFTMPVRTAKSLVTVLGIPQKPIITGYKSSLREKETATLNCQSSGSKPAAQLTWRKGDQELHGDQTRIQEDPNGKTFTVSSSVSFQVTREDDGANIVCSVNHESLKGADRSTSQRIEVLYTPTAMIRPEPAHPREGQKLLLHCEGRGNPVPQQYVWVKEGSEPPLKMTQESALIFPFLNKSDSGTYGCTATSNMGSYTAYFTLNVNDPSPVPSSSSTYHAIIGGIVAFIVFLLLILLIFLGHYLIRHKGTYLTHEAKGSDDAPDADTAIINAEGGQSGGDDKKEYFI


Assays:
hCADM3-GST = target: T3, hCADM3-GST (human); test: SPR (Biacore T-100), antibody captured, hCADM3-GST as analyte
T3 construct: also called extracellular domain of human CADM3 to which GST was added at the C-terminal side; human CADM3-GST
Protocol: (§1) The affinity of the anti-CADM3 antibodies produced in Example 2 for human CADM3 and mouse CADM3 was measured using Biacore T-100 (GE Healthcare). Each of the antibodies was immobilized on a […] sensor chip using a Human antibody Capture kit, and the binding ability was evaluated using hCADM3-GST and mCADM3-GST produced in Example 4 as analytes.
(§2) The obtained sensorgram was analyzed with BIA evaluation software, and the dissociation constant (KD value) was calculated.

mCADM3-GST = target: T4, mCADM3-GST (mouse); test: SPR (Biacore T-100), antibody captured, mCADM3-GST as analyte
T4 construct: also called extracellular domain of mouse CADM3 to which GST was added at the C-terminal side; mouse CADM3-GST
Protocol: as §1, §2

human CADM3 = target: T1, human CADM3; test: flow cytometry, 10 ug/mL, human CADM3/Expi293F vs parent Expi293F cells
Protocol: By using the cells, the reactivity of the antibodies produced in Example 2 with the CADM3-expressing cells was analyzed by a fluorescence activated cell sorting (FACS) method according to the following procedure.
After washing with SB, the cells were suspended in SB, and the fluorescence intensity of each cell was measured using a flow cytometer FACS CANTO II (manufactured by Becton, Dickinson and Company). Note that as a negative control, 10 μg/mL of the anti-AVM antibody was used.
The detection results were analyzed, and a mean fluorescence intensity (MFI) was calculated using a geometric mean. Further, with respect to the MFI when the concentration of each antibody was 10 μg/mL, the ratio of the MFI (mean fluorescence intensity ratio) between the human CADM3/Expi293F cells and the Expi293F cells (parent cell line) was calculated.

mouse CADM3 = target: T2, mouse CADM3; test: flow cytometry, 10 ug/mL, mouse CADM3/Expi293F vs parent Expi293F cells

Row | Binder | binding result (hCADM3-GST) | binding result (mCADM3-GST) | Mean fluorescence intensity ratio (human CADM3) | Mean fluorescence intensity ratio (mouse CADM3)
1 | CADM301 scFv-hG4PE (Fc fusion, also called anti-CADM3 scFv-Fc antibody) VH: QVQLVQSGAEVRRPGTSVKVSCKASGYSFTSYDINWVRLATGQGLEWMGWMNPNTGDTGSPQKFQDRVTMTRDISTGTAYLELRGLKSEDTAIYYCARGFLVTAYTAEFFPHWGQGTLVTVSS VL: SYVLTQPPSVSVAPGKTARLTCGGNNIGSKSVHWYQQRPGQAPVLVINYDSDRPSGIPERFSGSNSENTATLTISRVEAGDEADYYCQVWDSGSDHVVFGGGTQLIIL | binds | binds | 4.22 | 8.08
2 | CADM3102 scFv-hG4PE (Fc fusion, also called anti-CADM3 scFv-Fc antibody) VH: QMQLVQSGAEVKKPGSSVKVSCKASGGTFSSYAISWVRQAPGQGLEWMGGIIPMSGTANYAQKFQGRVTITADESTSTAYMELSSLRSEDTAVYYCARVEESGWYDHYHGMDVWGQGTTVTVSS VL: DVVMTQSPLSLPVTPGEPASISCTSSQSLLYSNGFNYLDWYLQKPGQSPQLLIYLGSNRASGVPDRFSGSGSGTDFTLKISRVEAEDVGVYYCMQALTTHPTFGGGTKVDIK | binds | binds | 52.3 | 42.6
3 | iCADM3_3R1-L5 VHH-hG4PE(R409K) (Fc fusion, VHH-Fc antibody; also called anti-CADM3 VHH-Fc antibody iCADM3_3R1-L5; not shown: Hinge-CH2-CH3 region of the human IgG4 heavy chain constant region (IgG4 variant)) QVQLVESGGGLVQAGGSLRLSCAASGSIVSVNAMGWYRQAPGKQRELVATITSGGSTNYADSAKGRFTISRDNAKNTMYLQMNSLKPEDTAVYYCNGEFWSRRDTRPPGVVNYWGQGTQVTVSS | binds | binds | 25.1 | 4.21
4 | iCADM3_3R1-L10 VHH-hG4PE(R409K) (Fc fusion, VHH-Fc antibody; also called anti-CADM3 VHH-Fc antibody iCADM3_3R1-L10; not shown: Hinge-CH2-CH3 region of the human IgG4 heavy chain constant region (IgG4 variant)) QVQLVESGGGLVQAGGSLRLSCAASGSIFSIHAMGWYRQAPGKQRELVATVTSGGSTNYADSVKGRFTISRDNAKNTVYLQMNSLKPEDTAVYYCNAETPYYSSTYYTNYWGQGTQVTVSS | binds | binds | 37.5 | 8.87
5 | iCADM3_3R1-L11 VHH-hG4PE(R409K) (Fc fusion, VHH-Fc antibody; also called anti-CADM3 VHH-Fc antibody iCADM3_3R1-L11; not shown: Hinge-CH2-CH3 region of the human IgG4 heavy chain constant region (IgG4 variant)) QVQLVESGGGLVQAGGSLRLSCAASGSIFSFNAMGWYRQAPGKQRGLVAVITSGGYTNYADSVKGRFTITRDNAKNTVYLQMNSLKPEDTAVYYCNAEGVYSDYVIMNYWGQGTQVTVSS | binds | binds | 32.2 | 35.5
6 | CADM3219 hG4PE(R409K) (antibody, V domains shown, Human IgG4 variant (S228P, L235E, R409K), vector pCI-hKG4PE(R409K)) VH: QVQLVQSGAEVKKPGASVKVSCKASGYSFTGYYIHWVRQAPGQGLEWMGRINPNSGGTTYAPKFQGRFTMTRDTSTTTVYLELSGLRSEDTAVYYCARVLERQGRPFEADAFDIWGQGTMVTVSS VL: not shown | binds | binds | 7.3 | 9.2
7 | CADM3301 hG4PE(R409K) (antibody, V domains shown, Human IgG4 variant (S228P, L235E, R409K), vector pCI-hKG4PE(R409K)) VH: QMQLVQSGAEVKKPGSSVKVSCKASGGTFNNYAISWVRQAPGQGLEWMGGNIPLSGTPKYAQKFQGRITMTADKSTSTEYMELSSLTSEDTAVYYCARDTPSGYNSPYYYKGMDVWGQGTMVTVSS VL: not shown | binds | binds | 6 | 6.2
8 | CADM3309 hG4PE(R409K) (antibody, V domains shown, Human IgG4 variant (S228P, L235E, R409K), vector pCI-hKG4PE(R409K)) VH: EVQLVQSGAEMKKPGSSVKLSCKFSGGDFRSYPISWVRQAPGQGLEWMGGIIPIFSRVNYAQRFLGRITITADESTSTAYMELRSLTSDDTAVYYCATDTPSGYNSPYYYKGMDVWGQGTLVTVSS VL: not shown | binds | binds | 10.2 | 12.5
9 | CADM3312 hG4PE(R409K) (antibody, V domains shown, Human IgG4 variant (S228P, L235E, R409K), vector pCI-hKG4PE(R409K)) VH: QLQLQESGPGLVKPSETLSLTCSVSGGSIRGHYWSWIRQPPGKGLEWMGYINHIGSAAYNPSLKSRVTISVDTSKNQFSLKLSSVTAADTAVYYCARMGPWWELDYWGQGTLVTVSS VL: not shown | binds | binds | 34.4 | 31.6
10 | CADM3314 hG4PE(R409K) (antibody, V domains shown, Human IgG4 variant (S228P, L235E, R409K), vector pCI-hKG4PE(R409K)) VH: QVQLVESGGGVVQPGGSLRLSCAASGFSFNNHGMHWVRQAPGKGLEWVTFIRFDGSSKYYADSVKGRFTISRDNSKNTVYLEMNSLRAEDTGVYYCVNTPRGWSFDIWGRGTLVTVSS VL: not shown | binds | binds | 10 | 9.2
11 | CADM3316 hG4PE(R409K) (antibody, V domains shown, Human IgG4 variant (S228P, L235E, R409K), vector pCI-hKG4PE(R409K)) VH: EVQLVETGGALVQPGGSLRLSCAASGFTFSSYSMNWVRQAPGKGLEWLSGISGGAFSTHYADSVKGRFTISRDNSKNTLYLQMNSLRAEDTAVYYCARVGRLSGSYNRYYYYYGMDVWGQGTLVTVSS VL: not shown | binds | binds | 6.5 | 7.1
12 | CADM3349 hG4PE(R409K) (antibody, V domains shown, Human IgG4 variant (S228P, L235E, R409K), vector pCI-hKG4PE(R409K)) VH: QVQLQQWGGGLLTPSETLSLSCDVSGGAFTNYHWTWIRQPPGKGLEWIGEIFHTGTTNYNPSLQGRVAMSIDTTKRQFFLRLTSLTAADTAVYYCARVGKYGWYVGDFWGQGTTVTVSS VL: not shown | binds | binds | 4.8 | 48.7
13 | CADM3351 hG4PE(R409K) (antibody, V domains shown, Human IgG4 variant (S228P, L235E, R409K), vector pCI-hKG4PE(R409K)) VH: EVQLLQSGGGLVQPGGSLRLSCAASGLIFSDHYMDWVRQAPGKGLEWVGSIRNKRNGGSTEYAASVKGRFSISRDDSKNSLYLQMNSLKTEDTAMYFCATTRTGYQGFYGMDVWGQGTTVTVSS VL: not shown | binds | binds | 8.2 | 8.8
14 | CADM3404 hG4PE(R409K) (antibody, V domains shown, Human IgG4 variant (S228P, L235E, R409K), vector pCI-hKG4PE(R409K)) VH: EVQLVETGGGVVQPGRSLRLSCAASGFAFSNYGMHWVRQAPGKGLEWVSVIYSGGNTDYADSVKGRFTISRDNSKNTVYLQMNSLRAEDTAVYYCASRRVVPGVIDYFDSWGQGTLVTVSS VL: not shown | binds | binds | 8.7 | 8.2
15 | CADM3402 hG4PE(R409K) (antibody, V domains shown, Human IgG4 variant (S228P, L235E, R409K), vector pCI-hKG4PE(R409K)) VH: EVQLVESGGGLVQPGGSLRLSCATSGFRFSMYGMHWVRQSPGKGLEWVSVIYSGGNTDYADSVKGRFTISRDNSKNTVYLQMNSLRAEDTAVYYCASRRVVPGVIDYFDSWGQGTLVTVSS VL: not shown | binds | binds | 10.8 | 9.4
16 | CADM3458 hG4PE(R409K) (antibody, V domains shown, Human IgG4 variant (S228P, L235E, R409K), vector pCI-hKG4PE(R409K)) VH: EVQLVESGGGVVQPGRSLRLSCAASGFTFSRYGIHWVRQAPGKGLEWVAVIYSGGNTDYADSVKGRFTISRDNSKNTVYLQMNSLRAEDTAVYYCASRRVVPGVIDYFDSWGQGTLVTVSS VL: not shown | binds | binds | 5.7 | 5.4
17 | CADM3432 hG4PE(R409K) (antibody, V domains shown, Human IgG4 variant (S228P, L235E, R409K), vector pCI-hKG4PE(R409K)) VH: QVQLQQSGPGLVKASQTLSLTCAISGDSVSSRSAAWDWIRQSPSRGLEWLGRTYYRSTWYNDYASSVRSRISINPDTSKNQFSLQLNSVTPEDTAVYYCVRANRKLPAPGQHFYYGMDVWGQGTTVTVSS VL: not shown | binds | binds | 14.7 | 14.6
